Measured values: US20210246166A1 (Bayer, published 2021)
Numbered stars: 1 amine (or outer) side, 2 acyl side, 3 side chain; on linkers, the order of the positions; unused ones are H or OH. Bridge positions count the residues as written; N and C are the ends. Square brackets hold non-standard residues; d marks the D form. Ends that are not written are not given here. cPrCO(1-aminomethyl) = O=C(C1(CN[*:1])CC1)[*:2]; Phe(3-COOH) = N[C@@H](Cc1cccc(C(=O)O)c1)C(=O)O; Oic = O=C(O)[C@@H]1C[C@@H]2CCCC[C@@H]2N1; PEG8 = NCCOCCOCCOCCOCCOCCOCCOCCOCCC(=O)O; PEG7 = NCCOCCOCCOCCOCCOCCOCCOCCC(=O)O; NMeI = CC[C@H](C)[C@H](NC)C(=O)O; tBuAla = CC(C)(C)C[C@H](N)C(=O)O; Cit = NC(=O)NCCC[C@H](N)C(=O)O; Pen = CC(C)(S)[C@H](N)C(=O)O; NMeC = CN[C@@H](CS)C(=O)O; Pip = O=C(O)[C@@H]1CCCCN1; NMeA = CN[C@@H](C)C(=O)O; Orn = NCCC[C@H](N)C(=O)O; Sar = CNCC(=O)O

B1: (Orn)-IC+SRS-((tBu)A)-PPI-(Pen)+IPD-OH (peptide)
peptide: [Orn]ICSRS[tBuAla]PPI[Pen]IPD-OH
modifications: disulfide 3-11; N-terminus assumed
SMILES: CC[C@H](C)[C@H](NC(=O)[C@@H](N)CCCN)C(=O)N[C@H]1CSSC(C)(C)[C@@H](C(=O)N[C@H](C(=O)N2CCC[C@H]2C(=O)N[C@@H](CC(=O)O)C(=O)O)[C@@H](C)CC)NC(=O)[C@H]([C@@H](C)CC)NC(=O)[C@@H]2CCCN2C(=O)[C@@H]2CCCN2C(=O)[C@H](CC(C)(C)C)NC(=O)[C@H](CO)NC(=O)[C@H](CCCNC(=N)N)NC(=O)[C@H](CO)NC1=O
B2: AIC+SRSLP-(Oic)-I-(Pen)+IPD-NH2 (HCl salt) (peptide)
peptide: AICSRSLP[Oic]I[Pen]IPD-NH2
modifications: disulfide 3-11; also: HCl salt
B3: AIC+SRSLP-(Oic)-I-(Pen)+IPD-NH2 (salt free form) (peptide)
peptide: AICSRSLP[Oic]I[Pen]IPD-NH2
modifications: disulfide 3-11
B4: AIC+SRSLP-(Oic)-I-(Pen)+IPD-OH (HCl salt) (peptide)
peptide: AICSRSLP[Oic]I[Pen]IPD-OH
modifications: disulfide 3-11; also: HCl salt
B5: (ACMP)-IC+SRS-((tBu)A)-PPI-(Pen)+IPD-NH2 (peptide)
peptide: [cPrCO(1-aminomethyl)]ICSRS[tBuAla]PPI[Pen]IPD-NH2
modifications: disulfide 3-11; N-terminus assumed
SMILES: CC[C@H](C)[C@@H]1NC(=O)[C@@H]2CCCN2C(=O)[C@@H]2CCCN2C(=O)[C@H](CC(C)(C)C)NC(=O)[C@H](CO)NC(=O)[C@H](CCCNC(=N)N)NC(=O)[C@H](CO)NC(=O)[C@@H](NC(=O)[C@@H](NC(=O)C2(CN)CC2)[C@@H](C)CC)CSSC(C)(C)[C@@H](C(=O)N[C@H](C(=O)N2CCC[C@H]2C(=O)N[C@@H](CC(=O)O)C(N)=O)[C@@H](C)CC)NC1=O
B6: ((1R,3S,4S)-2-azabicyclo[2.2.1]heptane-3-carboxylic acid)-IC+SRS-((tBu)A)-PPI-(Pen)+IP-NH2 (peptide)
peptide: [(1R,3S,4S)‑2‑azabicyclo(2.2.1)heptane‑3‑carboxylic acid]ICSRS[tBuAla]PPI[Pen]IP-NH2
modifications: disulfide 3-11
B7: ((N-Me)G)-IC+SRS-((tBu)A)-PPI-(Pen)+IP-(PEG7(25 atoms))-NH2 (peptide)
peptide: [Sar]ICSRS[tBuAla]PPI[Pen]IP[PEG7]-NH2
modifications: disulfide 3-11; N-terminus assumed
SMILES: CC[C@H](C)[C@H](NC(=O)CNC)C(=O)N[C@H]1CSSC(C)(C)[C@@H](C(=O)N[C@H](C(=O)N2CCC[C@H]2C(=O)NCCOCCOCCOCCOCCOCCOCCOCCC(N)=O)[C@@H](C)CC)NC(=O)[C@H]([C@@H](C)CC)NC(=O)[C@@H]2CCCN2C(=O)[C@@H]2CCCN2C(=O)[C@H](CC(C)(C)C)NC(=O)[C@H](CO)NC(=O)[C@H](CCCNC(=N)N)NC(=O)[C@H](CO)NC1=O
B8: (Cit)-IC+SRS-((tBu)A)-PPI-(Pen)+IPD-NH2 (peptide)
peptide: [Cit]ICSRS[tBuAla]PPI[Pen]IPD-NH2
modifications: disulfide 3-11; N-terminus assumed
SMILES: CC[C@H](C)[C@H](NC(=O)[C@@H](N)CCCNC(N)=O)C(=O)N[C@H]1CSSC(C)(C)[C@@H](C(=O)N[C@H](C(=O)N2CCC[C@H]2C(=O)N[C@@H](CC(=O)O)C(N)=O)[C@@H](C)CC)NC(=O)[C@H]([C@@H](C)CC)NC(=O)[C@@H]2CCCN2C(=O)[C@@H]2CCCN2C(=O)[C@H](CC(C)(C)C)NC(=O)[C@H](CO)NC(=O)[C@H](CCCNC(=N)N)NC(=O)[C@H](CO)NC1=O
B9: (Pip)-IC+SRS-((tBu)A)-PPI-((N-Me)C)+IPD-NH2 (peptide)
peptide: [Pip]ICSRS[tBuAla]PPI[NMeC]IPD-NH2
modifications: disulfide 3-11; N-terminus assumed
SMILES: CC[C@H](C)[C@H](NC(=O)[C@@H]1CCCCN1)C(=O)N[C@H]1CSSC[C@@H](C(=O)N[C@H](C(=O)N2CCC[C@H]2C(=O)N[C@@H](CC(=O)O)C(N)=O)[C@@H](C)CC)N(C)C(=O)[C@H]([C@@H](C)CC)NC(=O)[C@@H]2CCCN2C(=O)[C@@H]2CCCN2C(=O)[C@H](CC(C)(C)C)NC(=O)[C@H](CO)NC(=O)[C@H](CCCNC(=N)N)NC(=O)[C@H](CO)NC1=O
B10: (3-Amino-3-methylbutyric acid)-IC+SRS-((tBu)A)-PPI-(Pen)+IPD-NH2 (peptide)
peptide: [3‑Amino‑3‑methylbutyric acid]ICSRS[tBuAla]PPI[Pen]IPD-NH2
modifications: disulfide 3-11
B11: (3-Amino-2,2-dimethylpropionic acid)-IC+SRS-((tBu)A)-PPI-(Pen)+IPD-NH2 (peptide)
peptide: [3‑Amino‑2,2‑dimethylpropionic acid]ICSRS[tBuAla]PPI[Pen]IPD-NH2
modifications: disulfide 3-11
B12: ((N-Me)G)-IC+SRSLP-(Oic)-I-(Pen)+IP-(PEG8(28 atoms))-NH2 (peptide)
peptide: [Sar]ICSRSLP[Oic]I[Pen]IP[PEG8]-NH2
modifications: disulfide 3-11; N-terminus assumed
SMILES: CC[C@H](C)[C@H](NC(=O)CNC)C(=O)N[C@H]1CSSC(C)(C)[C@@H](C(=O)N[C@H](C(=O)N2CCC[C@H]2C(=O)NCCOCCOCCOCCOCCOCCOCCOCCOCCC(N)=O)[C@@H](C)CC)NC(=O)[C@H]([C@@H](C)CC)NC(=O)[C@@H]2C[C@@H]3CCCC[C@@H]3N2C(=O)[C@@H]2CCCN2C(=O)[C@H](CC(C)C)NC(=O)[C@H](CO)NC(=O)[C@H](CCCNC(=N)N)NC(=O)[C@H](CO)NC1=O
B13: ((N-Me)A)-IC+SRS-((tBu)A)-PPI-((N-Me)C)+IPD-NH2 (peptide)
peptide: [NMeA]ICSRS[tBuAla]PPI[NMeC]IPD-NH2
modifications: disulfide 3-11; N-terminus assumed
SMILES: CC[C@H](C)[C@H](NC(=O)[C@H](C)NC)C(=O)N[C@H]1CSSC[C@@H](C(=O)N[C@H](C(=O)N2CCC[C@H]2C(=O)N[C@@H](CC(=O)O)C(N)=O)[C@@H](C)CC)N(C)C(=O)[C@H]([C@@H](C)CC)NC(=O)[C@@H]2CCCN2C(=O)[C@@H]2CCCN2C(=O)[C@H](CC(C)(C)C)NC(=O)[C@H](CO)NC(=O)[C@H](CCCNC(=N)N)NC(=O)[C@H](CO)NC1=O
B14: AIC+SRSLP-(Oic)-I-((N-Me)C)+IPD-OH (peptide)
peptide: AICSRSLP[Oic]I[NMeC]IPD-OH
modifications: disulfide 3-11; N-terminus assumed
SMILES: CC[C@H](C)[C@H](NC(=O)[C@H](C)N)C(=O)N[C@H]1CSSC[C@@H](C(=O)N[C@H](C(=O)N2CCC[C@H]2C(=O)N[C@@H](CC(=O)O)C(=O)O)[C@@H](C)CC)N(C)C(=O)[C@H]([C@@H](C)CC)NC(=O)[C@@H]2C[C@@H]3CCCC[C@@H]3N2C(=O)[C@@H]2CCCN2C(=O)[C@H](CC(C)C)NC(=O)[C@H](CO)NC(=O)[C@H](CCCNC(=N)N)NC(=O)[C@H](CO)NC1=O
B15: ((N-Me)G)-IC+SRSLP-(Oic)-I-(Pen)+IP-((3-Carboxy)F)-NH2 (peptide)
peptide: [Sar]ICSRSLP[Oic]I[Pen]IP[Phe(3-COOH)]-NH2
modifications: disulfide 3-11; N-terminus assumed
SMILES: CC[C@H](C)[C@H](NC(=O)CNC)C(=O)N[C@H]1CSSC(C)(C)[C@@H](C(=O)N[C@H](C(=O)N2CCC[C@H]2C(=O)N[C@@H](Cc2cccc(C(=O)O)c2)C(N)=O)[C@@H](C)CC)NC(=O)[C@H]([C@@H](C)CC)NC(=O)[C@@H]2C[C@@H]3CCCC[C@@H]3N2C(=O)[C@@H]2CCCN2C(=O)[C@H](CC(C)C)NC(=O)[C@H](CO)NC(=O)[C@H](CCCNC(=N)N)NC(=O)[C@H](CO)NC1=O
B16: G-((N-Me)I)-C+SRSLPPIC+IPD-NH2 (HCl salt) (peptide)
peptide: G[NMeI]CSRSLPPICIPD-NH2
modifications: disulfide 3-11; also: HCl salt
B17: aIC+SRSLP-(Oic)-I-(Pen)+IPD-NH2 (peptide)
peptide: [dA]ICSRSLP[Oic]I[Pen]IPD-NH2
modifications: disulfide 3-11
B18: aIC+SRSLP-(Oic)-I-(Pen)+IPD-OH (peptide)
peptide: [dA]ICSRSLP[Oic]I[Pen]IPD-OH
modifications: disulfide 3-11
B19: ((N-Me)G)-IC+SRSLPPIC+IPD-NH2 (HCl salt) (peptide)
peptide: [Sar]ICSRSLPPICIPD-NH2
modifications: disulfide 3-11; also: HCl salt
B20: G-((N-Me)I)-C+SRSLPPIC+IPD-NH2 (peptide)
peptide: G[NMeI]CSRSLPPICIPD-NH2
modifications: disulfide 3-11; N-terminus assumed
SMILES: CC[C@H](C)[C@@H]1NC(=O)[C@@H]2CCCN2C(=O)[C@@H]2CCCN2C(=O)[C@H](CC(C)C)NC(=O)[C@H](CO)NC(=O)[C@H](CCCNC(=N)N)NC(=O)[C@H](CO)NC(=O)[C@@H](NC(=O)[C@H]([C@@H](C)CC)N(C)C(=O)CN)CSSC[C@@H](C(=O)N[C@H](C(=O)N2CCC[C@H]2C(=O)N[C@@H](CC(=O)O)C(N)=O)[C@@H](C)CC)NC1=O
B21: ((N-Me)G)-IC+SRSLPPIC+IPD-NH2 (peptide)
peptide: [Sar]ICSRSLPPICIPD-NH2
modifications: disulfide 3-11; N-terminus assumed
SMILES: CC[C@H](C)[C@H](NC(=O)CNC)C(=O)N[C@H]1CSSC[C@@H](C(=O)N[C@H](C(=O)N2CCC[C@H]2C(=O)N[C@@H](CC(=O)O)C(N)=O)[C@@H](C)CC)NC(=O)[C@H]([C@@H](C)CC)NC(=O)[C@@H]2CCCN2C(=O)[C@@H]2CCCN2C(=O)[C@H](CC(C)C)NC(=O)[C@H](CO)NC(=O)[C@H](CCCNC(=N)N)NC(=O)[C@H](CO)NC1=O
B22: (2-(Morpholine)acetyl)-IC+SRS-((tBu)A)-PPI-(Pen)+IPD-NH2 (peptide)
peptide: [2‑(Morpholine)acetyl]ICSRS[tBuAla]PPI[Pen]IPD-NH2
modifications: disulfide 3-11

Biological target: T1, recombinant human MASP1 active protease (amino acids 297-699, C-terminal His Tag) (human, UniProt P48740 297-699)
T1 sequence: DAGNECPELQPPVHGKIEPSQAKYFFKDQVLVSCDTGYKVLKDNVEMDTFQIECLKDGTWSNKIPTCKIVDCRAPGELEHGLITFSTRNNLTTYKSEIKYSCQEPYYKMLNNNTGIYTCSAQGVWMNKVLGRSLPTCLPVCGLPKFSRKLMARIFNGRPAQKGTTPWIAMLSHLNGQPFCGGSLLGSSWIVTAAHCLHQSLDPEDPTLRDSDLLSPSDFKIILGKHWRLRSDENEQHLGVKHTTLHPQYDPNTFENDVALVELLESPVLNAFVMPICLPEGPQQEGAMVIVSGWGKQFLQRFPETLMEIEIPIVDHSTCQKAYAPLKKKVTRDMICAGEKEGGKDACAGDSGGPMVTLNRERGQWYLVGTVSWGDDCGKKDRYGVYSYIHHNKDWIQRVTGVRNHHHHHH
Experiment: cell-based or functional assay

| Binder | human MASP1 IC50 [nM] |
| --- | --- |
| B1 | 1.35 |
| B2 | 1.5 |
| B3 | 1.5 |
| B4 | 2.45 |
| B5 | 1.6 |
| B6 | 1.6 |
| B7 | 1.6 |
| B8 | 1.7 |
| B9 | 1.9 |
| B10 | 1.9 |

Biological target: T2, Recombinant human MASP1 enzyme (fragment corresponding to amino acids 297-699, C-terminal His Tag) (human, UniProt P48740 297-699)
T2 sequence: T1 sequence
Experiment: cell-based or functional assay

| Binder | human MASP1 IC50 [nM] |
| --- | --- |
| B11 | 4.2 |
| B12 | 4.2 |
| B13 | 4.4 |
| B14 | 4.4 |
| B15 | 5 |
| B16 | 5.5 |
| B17 | 6.3 |
| B18 | 7 |
| B19 | 7.1 |
| B20 | 11 |
| B21 | 13 |
| B22 | 15 |
